The text below walks through data of article PMC9889658, “The structure of MadC from Clostridium maddingley reveals new insights into class I lanthipeptide cyclases” (Frontiers in Microbiology, 2023).

Assay [1] deals with NisA precursor peptide (unmodified) (Lactococcus lactis) (UniProt P13068). Put plainly: ITC. Conditions: cited from earlier work.
Assay [2] concerns the target nisin precursor NisA (unmodified) (Lactococcus lactis) (UniProt P13068). In words: ITC. As to conditions: cited from earlier work.
In assay [3] the target is NisA leader peptide leader peptide (Lactococcus lactis) (UniProt P13068). In words: ITC. Conditions: cited from earlier work.
Assay [4] deals with MadC ∆34 ∆391 (double mutant carrying both deletions, each with an inserted GAG-linker) (Clostridium sp. maddingley). Put plainly: SPR. A general note: SPR reads the build-up and loss of mass on a sensor chip optically.
The target of assay [5] is maddinglicin leader peptide construct madL2, Leader 2 (−23 − +5) (Clostridium sp. maddingley). In words: ITC; MadC (200–600 μM) in the syringe, 20 injections of 2 μl into the cell with the leader variant (20–60 μM); 25°C; 50 mM HEPES, 500 mM NaCl, pH 7.5; at least triplicate. Background: ITC needs no label: the signal is the heat of the interaction.
Assay [6] concerns the target maddinglicin leader peptide construct madL3, Leader 3 (−23 − +10) (Clostridium sp. maddingley). The description is as above.
Assay [7] has as its target maddinglicin leader peptide construct madL1, Leader 1 (−23 – −1) (Clostridium sp. maddingley). Described as above.
The target of assay [8] is prenisin (dehydrated) (Lactococcus lactis) (UniProt P13068). Conditions: cited from earlier work.
Assay [9] concerns the target prenisin (unmodified) (Lactococcus lactis) (UniProt P13068). Conditions: cited from earlier work.
Assay [10] deals with prenisin (modified) (Lactococcus lactis) (UniProt P13068). Conditions: cited from earlier work.
prenisin (modified) (Lactococcus lactis), sequence (P13068 24-57): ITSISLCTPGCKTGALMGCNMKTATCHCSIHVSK

NisB, sequence (P20103 whole entry): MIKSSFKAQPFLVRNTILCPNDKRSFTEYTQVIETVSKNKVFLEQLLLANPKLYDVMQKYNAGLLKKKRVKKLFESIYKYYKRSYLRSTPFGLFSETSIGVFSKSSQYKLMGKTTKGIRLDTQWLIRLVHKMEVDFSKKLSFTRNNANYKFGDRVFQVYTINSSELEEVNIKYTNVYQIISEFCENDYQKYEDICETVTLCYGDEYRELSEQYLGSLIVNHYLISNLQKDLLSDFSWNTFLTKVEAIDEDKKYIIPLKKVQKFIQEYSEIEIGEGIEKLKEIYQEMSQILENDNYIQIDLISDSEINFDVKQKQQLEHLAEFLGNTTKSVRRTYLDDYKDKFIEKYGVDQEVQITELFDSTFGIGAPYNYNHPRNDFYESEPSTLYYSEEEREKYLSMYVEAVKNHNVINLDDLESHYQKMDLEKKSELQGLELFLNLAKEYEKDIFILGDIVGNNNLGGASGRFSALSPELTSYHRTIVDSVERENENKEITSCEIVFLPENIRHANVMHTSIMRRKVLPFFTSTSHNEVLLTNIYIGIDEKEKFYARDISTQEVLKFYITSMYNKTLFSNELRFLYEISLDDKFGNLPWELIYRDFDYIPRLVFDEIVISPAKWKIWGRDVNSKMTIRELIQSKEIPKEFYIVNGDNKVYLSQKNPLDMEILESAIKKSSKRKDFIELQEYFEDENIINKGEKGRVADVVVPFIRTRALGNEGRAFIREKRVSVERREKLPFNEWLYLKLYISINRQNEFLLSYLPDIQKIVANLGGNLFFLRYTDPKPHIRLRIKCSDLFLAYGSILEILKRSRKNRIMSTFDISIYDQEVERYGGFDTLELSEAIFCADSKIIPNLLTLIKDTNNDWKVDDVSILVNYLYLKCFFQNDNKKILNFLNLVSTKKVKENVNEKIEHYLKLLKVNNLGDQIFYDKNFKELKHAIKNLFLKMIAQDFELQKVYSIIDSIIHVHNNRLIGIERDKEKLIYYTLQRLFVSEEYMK
NisC, sequence (Q03202 whole entry): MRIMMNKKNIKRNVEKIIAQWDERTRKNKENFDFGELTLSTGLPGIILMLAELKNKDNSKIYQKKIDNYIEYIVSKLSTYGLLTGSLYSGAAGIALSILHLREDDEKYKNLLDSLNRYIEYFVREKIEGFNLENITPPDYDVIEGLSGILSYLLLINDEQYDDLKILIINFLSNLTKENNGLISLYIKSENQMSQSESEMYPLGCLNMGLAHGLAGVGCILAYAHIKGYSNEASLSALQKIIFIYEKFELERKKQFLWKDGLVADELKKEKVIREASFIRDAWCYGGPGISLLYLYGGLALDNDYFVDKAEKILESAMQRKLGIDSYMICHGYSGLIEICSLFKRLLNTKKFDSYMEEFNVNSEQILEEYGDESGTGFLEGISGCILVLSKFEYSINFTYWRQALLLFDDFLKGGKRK
NisA leader peptide leader peptide (Lactococcus lactis), sequence (P13068 1-23): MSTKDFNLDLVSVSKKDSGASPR
prenisin (unmodified) (Lactococcus lactis), sequence (P13068 24-57): as the sequence (P13068 24-57) above
prenisin (dehydrated) (Lactococcus lactis), sequence (P13068 24-57): as above
NisA precursor peptide (unmodified) (Lactococcus lactis), sequence (P13068 24-57): as above
nisin precursor NisA (unmodified) (Lactococcus lactis), sequence (P13068 24-57): as above

NisC (from UniProt Q03202): the Kd in assay [1] is 2400 nM; in assay [2] it was 2000 nM; in assay [3], 3800 nM.

Consider “maddinglicin leader peptide construct madL3, Leader 3 (−23 − +10)”, for which the Kd in assay [4] worked out at 35000 nM.

With “MadC (lanthionine cyclase of Clostridium sp. maddingley), His6-tag cleaved off (enzyme)”, the values for the dH in [5], in [6] and in [7] were -6.02 kcal/mol, -7.3 kcal/mol and -8.76 kcal/mol, respectively. Also, the values for the stoichiometry N in assay [5], in assay [6] and in [7] were 0.99, 0.99 and 0.83, respectively.

For the substance NisB (from UniProt P20103), the Kd in assay [8] is 300 nM; in assay [9], 1000 nM; in [10], 10500 nM.

For orientation: Kd means the constant that tells how readily two partners part at equilibrium. The term stoichiometry N denotes a count of units in the complex or per binding partner.
